Patent US20240368269A1 (Memorial Sloan Kettering, published 2024)

T1: DLL3 (target in the Fab-Zap internalization assay) (UniProt Q9NYJ7 27-618, limits assumed)
T1 sequence (looked up): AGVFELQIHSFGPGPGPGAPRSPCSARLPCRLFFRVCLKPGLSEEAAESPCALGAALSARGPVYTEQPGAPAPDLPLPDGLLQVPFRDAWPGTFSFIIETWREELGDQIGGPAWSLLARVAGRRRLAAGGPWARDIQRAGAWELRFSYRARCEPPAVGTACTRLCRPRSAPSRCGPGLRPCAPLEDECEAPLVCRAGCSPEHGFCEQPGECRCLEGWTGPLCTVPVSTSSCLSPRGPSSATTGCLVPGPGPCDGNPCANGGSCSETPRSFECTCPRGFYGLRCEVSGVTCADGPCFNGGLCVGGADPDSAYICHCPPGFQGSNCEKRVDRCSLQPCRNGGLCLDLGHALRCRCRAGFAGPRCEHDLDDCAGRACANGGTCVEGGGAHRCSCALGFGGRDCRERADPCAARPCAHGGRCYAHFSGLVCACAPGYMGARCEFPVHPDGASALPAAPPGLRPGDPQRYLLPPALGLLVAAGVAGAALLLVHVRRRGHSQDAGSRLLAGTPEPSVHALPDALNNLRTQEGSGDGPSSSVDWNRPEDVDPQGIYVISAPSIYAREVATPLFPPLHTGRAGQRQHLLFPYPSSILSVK


Target: T1, DLL3 (target in the Fab-Zap …)
Assay: cell-based or functional assay

Binder | Percent Max Killing (Fab-Zap internalization assay, 10 ug/ml)
L22 (antibody, V domains shown) VH: EVQLLESGGGLVQPGGSLRLSCAASGFTFSSYAMGWVRQTPGKGLEWVSTISGRGGDTYYADSVKGRFTISRDNSKNTLYLQMNSLRAEDTAIYYCAKERGLGFDYWGQGTLVTVSS VL: DIVMTQTPLSLPVTPGEPASISCRSSQSLLDSDDGNTYLDWYLQKPGQSPQLLIYTLSYRASGVPDRFSGSGSGTDFTLKISRVEAEDVGVYYCMQHLEFPLTFGGGTKVEIK | 82%
K19 (antibody, V domains shown) VH: QVQLVQSGAEVKKPGASLKVSCKTSGYTFNSYYMHWVRQAPGQGLEWMGINNPSGGTTSYAQKFQGRVTMTRDTSTSTVYMELSSLRSEDTAVYYCARDWGEQYGMDVWGQGTTVTVSS VL: not shown | 71%
G3 (antibody, V domains shown) VH: QVQLQESGPGLVKPSETLFLTCTVSGGSISSYYWTWIRQPAGKGLEWIGRIYTSGSTNYNPSLKSRVTMSVDTSKNQFSLKLSSVTAADTAVYYCAREDWESWTFDIWGQGTMVTVSS VL: not shown | 86%
D8 (antibody, V domains shown) VH: QVQLVQSGAEVKKPGASVKVSCKASGYTFTTYYMHWVRQAPGQGLEWMGIINPSGGSTSYAQKFQGRVTMTRDTSTSTVYMELSSLRSEDTAVYYCARQGHYIGNYLDYWGQGTLVTVSS VL: not shown | 68%
L12 (antibody, V domains shown) VH: QVQLVQSGAEVKKPGASVKVSCKASGYTFTSYYMHWVRQAPGQGLEWMGIINPSGGSRSYAQKFQGRVTMTRDTSTSTVYMELSSLRSEDTAVYYCARQLELLGNAFDIWGQGTMVTVSS VL: not shown | 61%
C22 (antibody, V domains shown) VH: QVQLVQSGAEVKKPGASVKVSCKASGYTFTSYYMHWVRQAPGQGLEWMGIINPSGGSTSYAQKFQGRVTMTRDTSTSTVYMELSSLRSEDTAVYYCARVADIVGATFDYWGQGTLVTVSS VL: not shown | 69.1%
M11 (antibody, V domains shown) VH: QVQLVQSGAEVKKPGASVKVSCKASGYTFTSYYIHWVRQAPGQGLEWMGIINPSGGSKSYAQKFQGRVTMTRDTSTGTVYMELSSLRSEDTAVYYCAGQLELLGNAFDIWGQGTMVTVSS VL: not shown | 65.2%
J23 (antibody, V domains shown) VH: QVQLVQSGAEVKKPGASVKVSCKASGYTFTSYYMHWVRQAPGQGLEWMGIINYSGGSKSYAQKFQGRVTMTRDTSTSTVYMELSSLRSEDTGVYYCARQGRYSGSYLDYWGQGTLVTVSS VL: not shown | 59.5%
C8 (antibody, V domains shown) VH: EVQLVESGGGLVQPGGSQRLSCAASGFTFSSYWMNWVRQAPGKGLEWVANIKEDGSEKYYVDSVKGRFTISRDNAKNSLYLQMNSLRAEDTAVYYCARDPGWAPFDYWGQGTLVTVSS VL: DIQMSQSPSSLSASVGDRVTITCRASQGISNYLAWFQQKPGKAPKSLIYAASSLQSGVPSKFSGSGSGTDFTLAISSLQPEDFATYYCQQYNSFPYTFGQGTTLEIK | 89%
O24 (antibody, V domains shown) VH: QVQLVQSGAEVKKPGASVKVSCKASGYTFTSYYLHWVRQAPGHGLEWMAIINPSGGSTSYAQKFLGRVTMTRDTSTNTVYMELSSLRSEDTAVYYCARERQQLDYYYFAMDVWGQGTTVTVSS VL: DIQMTQSPSSLSASVGDRVTITCRASQGISNYLAWFQQKPGKAPKSLIYAASSLQSGVPSKFSGSGSGTDFTLTISSLQPEDFATYYCQQYNSYPPTFGQGTKVEIK | 80.3%
J8 (antibody, V domains shown) VH: QVHLVQSGAEVKKPGASVKVSCKASGYTFTIYYIHWVRQAPGQGLEWMGIINPSGGSTSYAQKFQGRVTMTRDTSTSTVYMELSSLRSEDTAVYYCSGNDYVDYVTTDYYGMDVWGQGTTVTVSS VL: DIQMTQSPSSLSASVGDRVTITCRASQGISNYLAWFQQKPGKAPKSLIYAASSLQSGVPSKFSGSGSGTDFTLTISSLQPEDFATYYCQQYNSSPYTFGQGTKLEIK | 64%
A18 (antibody, V domains shown) VH: QVTLRESGPALVKSTQTLTLTCTFSGFSLSTSGMCVSWIRQTPGKALEWLALIDWDDNKYYSTSLKTRLIISKDTSKNQVVLTMTNMEPVDTATYYCARIRGYSGSYDAFDIWGQGTMVTVSS VL: DIVMTQSPLSLPVTPGEPASISCRSSQSLLHSNGYNYLDWYLQKPGQSPHILLYLGSNRAPGVPDRFSGSGSGTDFTLKISRVEAEDVGVYYCMQALQTPFTFGPGTKVDIK | 67%
O18 (antibody, V domains shown) VH: QVQLQESGPGLVKPSETLSLTCTVSGGSINSYYWSWIRQPPGKGLEWIGYIFYSGITNYNPSLKSRVTISLDTSKNQFSLKLSSVTAADTAVYYCARIGVAGFYFDYWGQGTLVTVSS VL: not shown | 88%
F21 (antibody, V domains shown) VH: EVQLVESGGGLVQPGGSLRLSCAASGFTFSSYWMSWVRQAPGKGLEWVANIKQDGSEKYYVDSVKGRFTISRDNAKNSLYLQMNSLRAEDTAVYYCAREWLRFGGLVYWGQGTLVTVSS VL: not shown | 20%
P4 (antibody, V domains shown) VH: EVQLVESGGGLVKPGGSLRLSCAASGFTFSFYSMNWVRQAPGKGLEWVSSISSSSSYIYYADSVKGRFTISRDNAKNSLYLQMNSLRAEDTAVYYCARNYDFWRGAFDIWGQGTMVTVSS VL: not shown | 68%
E23 (antibody, V domains shown) VH: QVQLVQSGAEVRKPGASVKVSCKASGYTFTGYYMHWVRQAPGQGLEWMGWINSYSGGANYAQKFQDRVTMTRDTSVSTASMELSRLRSDDTAVYYCARDGSGWYGSYFDFWGQGTLVTVSS VL: DIVMTQTPLSSPVTLGQPASISCRSSQSLVHSDGNTYLSWLQQRPGQPPRLLIYKISNRFSGVPDRFSGSGAGTDFTLKISRVEAEDVGFYYCIQTTQFPLTFGGGTKVEIK | 88.7%
N10 (antibody, V domains shown) VH: QVQLVQSGAEVKKPGASVKVSCKASGYTFTGYYMHWVRQAPGQGLEWMGWINPHSGAPNSAQKFQVRVTMTRDTSISTAYMELSRLRSDDTAVYYCARDSSGWYGDAFDIWGQGTMVTVSS VL: not shown | 74%
F9 (antibody, V domains shown) VH: QVQLVQSGAEVKKPGASVQVSCKASGYTFTSYYMHWVRQAPGQGLEWMGIINPSGGSTSYAQKFQGRVTMTRDTSTSTVYMELSSLRSEDTAVYYCARQGGAQWLVLAFDIWGQGTMVTVSS VL: EIVLTQSPGTLSLSPGERATLSCRASQSVSSYLAWYQQKPGQPPRLLIYGASSRATGIPDRFSGGGSGTDFTLTISRLEPEDFAVYYCQQYDSSPYTFGQGTKLEIK | 70%
G16 (antibody, V domains shown) VH: QVQLVQSGAEVKKPGASVQVSCKASGYTFTSYYMHWVRQAPGQGLEWMGIINPSGGSTSYAQKFQGRVTMTRDTSTSTVYMELSSLRSEDTAVYYCARQGGAQWLVLAFDIWGQGTMVTVSS VL: EIVLTQSPGTLSLSPGERATLSCRASQSVSSYLAWYQQKPGQAPRLLIYGASSRATGIPDRFSGGGSGTDFTLTISRLEPEDFAVYYCQQYGSSPYTFGQGTKLEIK | 46%
